According to patent US20180333502A1:

Target: activated human CD4 T cells (GITR) (human) (UniProt Q9Y5U5)
Assay: FACS binding to activated human CD4 T cells; isotype control

activated human CD4 T cells (GITR) (human), sequence (Q9Y5U5 26-241): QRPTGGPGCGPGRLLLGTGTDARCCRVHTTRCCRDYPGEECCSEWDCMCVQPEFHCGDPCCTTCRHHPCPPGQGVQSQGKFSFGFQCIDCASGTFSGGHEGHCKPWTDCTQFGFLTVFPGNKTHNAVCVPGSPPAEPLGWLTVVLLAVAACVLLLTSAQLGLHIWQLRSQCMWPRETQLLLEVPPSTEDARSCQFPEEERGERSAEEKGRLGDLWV

unrelated hIgG1
EC50: 132 nM

unrelated hIgG2
EC50: 6.72 nM
